Source: patent publication US20210087296A1 (published 2021)

Assays:
[1] = molecular target: T1, matrix metalloproteinase-14 catalytic domain (cdMMP-14) (human, UniProt P50281 114-287, limits assumed, biotinylated with EZ-Link Sulfo-NHS-LC-Biotin for ELISA; amine-coupled to CM5 chip for SPR); assay: ELISA, purified Fab titrated on immobilised biotin-cdMMP-14, anti-Fab-HRP
T1 construct: also called catalytic domain of MMP-14; wild-type MMP-14
Description: After labeling purified cdMMP-14 using EZ-Link Sulfo-NHS-LC biotinylation kit (Thermo Fisher), biotin-cdMMP-14 was incubated in a streptavidin coated ELISA plate (Thermo Scientific) blocked with biotin-BSA. After washing, 50 μL of 2 M Fabs were then added to the first well and serially diluted to ˜1 nM and incubated for 30 minutes at 4° C. After washing, the ELISA signals were developed by anti-Fab-HRP (Sigma) and TMB (Thermo Scientific). The color development reaction was stopped by addition of H₂SO₄, and the absorptions at 450 nm were measured.

[2] = molecular target: T2, MMP-14 catalytic domain mutant F204A (human, UniProt P50281 114-287, limits assumed); assay: competitive ELISA, mutant in solution against immobilised wild-type MMP-14
T2 construct: Position as printed
Description: (§1) Fab ELISA. Purified Fab was serially diluted in MMP-14-coated wells followed by incubation at ambient temperature for 1 hr. Bound Fabs were detected using the anti-Fab-HRP conjugate. The half-maximal effective concentration (EC₅₀) was calculated from a four-parametric logistic curve-fitting analysis.

[3] = molecular target: T3, MMP-14 catalytic domain mutant F198A (human, UniProt P50281 114-287, limits assumed); assay: as above
T3 construct: Position as printed
Description: as §1

[4] = molecular target: T4, MMP-14 catalytic domain mutant N231A (human, UniProt P50281 114-287, limits assumed); assay: as above
T4 construct: Position as printed
Description: as §1

[5] = molecular target: T5, MMP-14 catalytic domain mutant Y203A (human, UniProt P50281 114-287, limits assumed); assay: as above
T5 construct: Position as printed
Description: as §1

[6] = molecular target: T6, MMP-14 catalytic domain mutant T190A (human, UniProt P50281 114-287, limits assumed); assay: as above
T6 construct: Position as printed
Description: as §1

EC50 [1] [nM] | binding result [2] | binding result [3] | binding result [4] | binding result [5] | binding result [6] | Binder
1.2 | – | – | – | – | – | Fab R2C14 (Fab, V domains shown, Fab) VH: EVQLVESGGGLVQPGGSLRLSCAASGFNIYSSSIHWVRQAPGKGLEWVASIYSYSGYTYYADSVKGRFTISADTSKNTAYLQMNSLRAEDTAVYYCARVSNRYNRSSASIAGLQLFRPYGMDYWGQGTLVTVSS VL: DIQMTQSPSSLSASVGDRVTITCRASQSVSSAVAWYQQKPGKAPKLLIYSASSLYSGVPSRFSGSRSGTDFTLTISSLQPEDFATYYCQQSSYSLITFGQGTKVEIKR
– | binds | binds | binds | binds | binds | Fab 3A2 (Fab, V domains shown, Synthetic human Fab from E. coli periplasm; also called R3C9; not shown: His tag at C-terminus of heavy chain) VH: EVQLVESGGGLVQPGGSLRLSCAASGFNLSSSSMHWVRQAPGKGLEWVASIYPSYSYTYYADSVKGRFTISADTSKNTAYLQMNSLRAEDTAVYYCARVKLQKDKSHQWIRNLVATPYGRYVMDYWGQGTLVTVSS VL: DIQMTQSPSSLSASVGDRVTITCRASQSVSSAVAWYQQKPGKAPKLLIYSASSLYSGVPSRFSGSRSGTDFTLTISSLQPEDFATYYCQQYGYPITFGQGTKVEIKR
